Measured values: patent publication US20230049152A1 (Genentech, published 2023)
Where a chain is given by its changes, count along the chain named. Each block holds one binder with its values, some of them ahead of it.

Assays:
human CCR8 = human CCR8 (human, UniProt P51685 1-355); assay: cell-based or functional assay
I20A = target: T1, I20A; assay: flow cytometry, HEK293 transfected with hCCR8 I20A with C-terminal FLAG; sheet prints [huCCR8]=0.02 ug/ml
T1 construct: single alanine mutant of hCCR8; also called hCCR8 I20A
T1 receptor chain: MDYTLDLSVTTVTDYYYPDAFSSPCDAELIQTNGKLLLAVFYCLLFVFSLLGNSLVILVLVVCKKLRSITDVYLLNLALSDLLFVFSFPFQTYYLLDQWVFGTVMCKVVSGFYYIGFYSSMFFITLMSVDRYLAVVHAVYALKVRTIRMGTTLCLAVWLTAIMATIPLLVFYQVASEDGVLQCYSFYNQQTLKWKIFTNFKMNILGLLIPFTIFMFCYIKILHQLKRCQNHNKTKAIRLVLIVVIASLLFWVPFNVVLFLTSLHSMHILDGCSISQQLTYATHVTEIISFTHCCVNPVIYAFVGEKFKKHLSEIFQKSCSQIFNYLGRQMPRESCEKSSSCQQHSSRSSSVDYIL

D19A = target: T2, D19A; assay: flow cytometry, HEK293 transfected with hCCR8 D19A with C-terminal FLAG; sheet prints [huCCR8]=0.02 ug/ml
T2 construct: single alanine mutant of hCCR8; also called hCCR8 D19A
T2 receptor chain: T1 receptor chain with D19A, A20I
Description: FIGS. 16A-16B depict the epitope maps for hu.Ab5.H13L1 (FIG. 16A) and hu.Ab4.H12L3 (FIG. 16B) mAbs.
(§1) To epitope map fucosylated hu.Ab5.H13L1, the binding to alanine point mutations in human CCR8 was analyzed by flow cytometry.

hCCR8 L5A = target: T3, hCCR8 L5A (human, UniProt P51685 1-355); assay: flow cytometry on transfected HEK 293 cells
T3 construct: alanine point mutant on transfected HEK 293 cells
Description: as §1
Constructs encoding for individual alanine point mutations at positions 2-24 in hCCR8 with a C-terminal FLAG tag were generated. HEK 293 cells were transfected with constructs encoding for mutant hCCR8 or with a mock construct using transIT X2 (reagent:DNA=3:1) for 24 hrs, and surface stained with the huCCR8 antibody hu.Ab5.H13L1 (hIgG1), then fixed and permeabilized and followed by FITC-anti-Flag (Sigma F4049).

V9A = target: T4, V9A; assay: flow cytometry, HEK293 transfected with hCCR8 V9A with C-terminal FLAG; sheet prints [huCCR8]=0.02 ug/ml
T4 construct: single alanine mutant of hCCR8; also called hCCR8 V9A
T4 receptor chain: T1 receptor chain with V9A, A20I

- ADCP EC50, macrophages HR/FF (FIG. 14A) (human CCR8): 0.35 nM
- ADCP EC50, macrophages RR/FF (FIG. 14B) (human CCR8): 0.81 nM
- ADCP EC50, macrophages RR/VF (FIG. 14D) (human CCR8): 0.41 nM
B1: hu.Ab4.H12L3 (antibody, human IgG1, kappa)
heavy: not shown
light: DYQMTQSPSSLSASVGDRVTITCQASQSISSYLSWYQQKPGKAPKLLIYKASTLASGVPSRFSGSGSGTDFTLTISSLQPEDFATYYCQQGYTSSNIDNIFGGGTKVEIKRTVAAPSVFIFPPSDEQLKSGTASVVCLLNNFYPREAKVQWKVDNALQSGNSQESVTEQDSKDSTYSLSSTLTLSKADYEKHKVYACEVTHQGLSSPVTKSFNRGEC
notes: fucosylated human IgG1; also called huCCR8-Ab4.H12L3.hIgG1; Ab4 variant

- binding result (I20A): binds
- binding result (D19A): binds
- binding result (hCCR8 L5A): no binding
- binding result (V9A): binds
B2: hu.Ab5.H13L1 (antibody, human IgG1, kappa)
heavy: not shown
light: DIQVTQSPSSLSASVGDRVTITCQASENIANALAWYQQKPGKPPKFLIYGASNLASGVPSRFSGSGSGTDFTFTISSLQPEDIATYYCQQAYYGNSFVEGTFGGGTKVEIKRTVAAPSVFIFPPSDEQLKSGTASVVCLLNNFYPREAKVQWKVDNALQSGNSQESVTEQDSKDSTYSLSSTLTLSKADYEKHKVYACEVTHQGLSSPVTKSFNRGEC
notes: fucosylated human IgG1; also called Ab5 variant
